From US20250127943A1 (published 2025)

Key:
[1] = target: Epidermal growth factor receptor I (EGFR) (human) (UniProt P00533); assay: flow cytometry saturation binding on EGFR positive cells
[2] = target: Epidermal growth factor receptor I (EGFR) (human) (UniProt P00533); assay: flow cytometry on MDA-MB-468 cells
[3] = target: Epidermal growth factor receptor I (EGFR) (human) (UniProt P00533); assay: competitive radioligand binding on MDA-MB-468 cells; pre-blocking with 100-fold excess unlabeled 8709-scFv-Fc, tracer ^225Ac-8709-scFv-Fc at 50 nM
[4] = target: T1, Epidermal growth factor receptor I (EGFR) (human, UniProt P00533 25-1210); assay: flow cytometry saturation binding on MDA-MB-468 cells
T1 construct: whole, on cells; MDA-MB-231 cells also carry EphA2; also called ErbB-1; HER1
Procedure: (§1) Binding profile of immunoconjugates to MDA-MB468 (high EGFR expression) and MDA-MB-435 (EGFR negative) was studied using flow cytometry. […] A saturation binding curve was performed to determine the binding constants KD at which immunoconjugates bind to the cell.
(§2) In vitro binding to target receptor (e.g. EGFR) positive cells was performed for all immunoconjugates and compared with corresponding unconjugated antibody, and control IgG. […] Target antibodies, control IgG and their respective ADCs were titrated at a minimum of a 10-fold excess onto 1×10⁵ cells. The cell-compound reactions were incubated for 30 minutes at room temperature followed by 15 minutes on ice. Cells were washed and resuspended in a 1:50 dilution of PE or FITC labeled Goat F(ab′)2 fragment anti-human IgG (H+L) antibody (Beckman Coulter, IM0839) and incubated for 30 minutes on ice in the dark. Cells were washed and suspended in 2% FBS-PBS. Data was acquired using a Beckman Coulter Gallios flow cytometer and the results were analysed using FlowJoV10. The binding constant KD for each conjugate were generated using a non-linear regression curve fit with GraphPad prism 6.

[5] = target: T1, Epidermal growth factor receptor I …; assay: flow cytometry saturation binding on EGFR positive cells
Procedure: as §1, §2

[6] = target: T1, Epidermal growth factor receptor I …; assay: flow cytometry on MDA-MB-468 cells
Procedure: as §1, §2

[7] = target: T1, Epidermal growth factor receptor I …; assay: saturation radioligand binding assay on MDA-MB-468 cells

B1: 8709-scFv-Fc (Fc fusion, part only; not given: Linker, domain order, hinge and Fc, not shown: another chain or arm of the molecule; a dimerising Fc or GST; small tags and cut ends)
VH: EVQLVESGGGLVQPGGSLRLSCAASGFNLYSSSMHWVRQAPGKGLEWVASIYPYSGYTYYADSVKGRFTISADTSKNTAYLQMNSLRAEDTAVYYCARYPFGVSAYYAMDYWGQGTLVTVSS
VL: DIQMTQSPSSLSASVGDRVTITCRASQSVSSAVAWYQQKPGKAPKLLIYSASSLYSGVPSRFSGSRSGTDFTLTISSLQPEDFATYYCQQSYWLITFGQGTKVEIK
In the case of B1, the Kd [1] is reported as 1.1 nM, the % binding [2] is reported as > 90% and the fold reduction in the binding of ^225Ac-8709-scFv-Fc to EGFR [3] is reported as 23.2 fold.

B2: Macropa-8709-scFv-Fc (Fc fusion)
VH: EVQLVESGGGLVQPGGSLRLSCAASGFNLYSSSMHWVRQAPGKGLEWVASIYPYSGYTYYADSVKGRFTISADTSKNTAYLQMNSLRAEDTAVYYCARYPFGVSAYYAMDYWGQGTLVTVSS
VL: DIQMTQSPSSLSASVGDRVTITCRASQSVSSAVAWYQQKPGKAPKLLIYSASSLYSGVPSRFSGSRSGTDFTLTISSLQPEDFATYYCQQSYWLITFGQGTKVEIKR
modifications: macropa chelator conjugated via macropa-NCS, sites not stated
With B2 the “fold higher KD value as compared to 8709-scFv-Fc” value [4] was 10.4 fold and the Kd [5] was 11.3 nM.

B3: 8709-scFv-Fc-PEG6-DM1 (Fc fusion)
VH: EVQLVESGGGLVQPGGSLRLSCAASGFNLYSSSMHWVRQAPGKGLEWVASIYPYSGYTYYADSVKGRFTISADTSKNTAYLQMNSLRAEDTAVYYCARYPFGVSAYYAMDYWGQGTLVTVSS
VL: DIQMTQSPSSLSASVGDRVTITCRASQSVSSAVAWYQQKPGKAPKLLIYSASSLYSGVPSRFSGSRSGTDFTLTISSLQPEDFATYYCQQSYWLITFGQGTKVEIKR
modifications: PEG6-DM1 conjugated via NHS (drug to antibody ratio 3.5), sites not stated
B3 was tested, and the “% binding” value [6] was > 90% and the Kd [5] was 4.2 nM.

B4: ^225Ac-8709-scFv-Fc (Fc fusion)
VH: EVQLVESGGGLVQPGGSLRLSCAASGFNLYSSSMHWVRQAPGKGLEWVASIYPYSGYTYYADSVKGRFTISADTSKNTAYLQMNSLRAEDTAVYYCARYPFGVSAYYAMDYWGQGTLVTVSS
VL: DIQMTQSPSSLSASVGDRVTITCRASQSVSSAVAWYQQKPGKAPKLLIYSASSLYSGVPSRFSGSRSGTDFTLTISSLQPEDFATYYCQQSYWLITFGQGTKVEIKR
modifications: macropa chelator with ^225Ac, sites not stated
In the case of B4, the Kd [7] is reported as 14.5 nM.
